Reference: publication doi:10.1101/481457

Biological target: human HSF2-YFP (human) (UniProt Q03933)
Experiment: fluorescent three-hybrid assay

human HSF2-YFP (human), sequence (Q03933 whole entry): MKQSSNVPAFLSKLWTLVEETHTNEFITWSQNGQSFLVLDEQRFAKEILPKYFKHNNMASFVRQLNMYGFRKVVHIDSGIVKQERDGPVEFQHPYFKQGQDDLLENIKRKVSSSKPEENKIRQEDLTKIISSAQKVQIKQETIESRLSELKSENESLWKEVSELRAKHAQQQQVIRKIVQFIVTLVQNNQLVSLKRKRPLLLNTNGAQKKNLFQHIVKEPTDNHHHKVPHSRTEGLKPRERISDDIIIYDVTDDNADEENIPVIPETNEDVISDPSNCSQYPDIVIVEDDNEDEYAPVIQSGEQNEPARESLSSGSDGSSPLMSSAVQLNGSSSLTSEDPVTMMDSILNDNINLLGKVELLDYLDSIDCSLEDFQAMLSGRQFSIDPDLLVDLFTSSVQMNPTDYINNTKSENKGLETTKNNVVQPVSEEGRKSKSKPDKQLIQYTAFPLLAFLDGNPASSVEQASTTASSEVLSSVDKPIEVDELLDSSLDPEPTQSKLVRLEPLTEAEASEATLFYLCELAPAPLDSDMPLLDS
CBP-HA, Q92793 1-2442 (natural protein), sequence (Q92793 whole entry): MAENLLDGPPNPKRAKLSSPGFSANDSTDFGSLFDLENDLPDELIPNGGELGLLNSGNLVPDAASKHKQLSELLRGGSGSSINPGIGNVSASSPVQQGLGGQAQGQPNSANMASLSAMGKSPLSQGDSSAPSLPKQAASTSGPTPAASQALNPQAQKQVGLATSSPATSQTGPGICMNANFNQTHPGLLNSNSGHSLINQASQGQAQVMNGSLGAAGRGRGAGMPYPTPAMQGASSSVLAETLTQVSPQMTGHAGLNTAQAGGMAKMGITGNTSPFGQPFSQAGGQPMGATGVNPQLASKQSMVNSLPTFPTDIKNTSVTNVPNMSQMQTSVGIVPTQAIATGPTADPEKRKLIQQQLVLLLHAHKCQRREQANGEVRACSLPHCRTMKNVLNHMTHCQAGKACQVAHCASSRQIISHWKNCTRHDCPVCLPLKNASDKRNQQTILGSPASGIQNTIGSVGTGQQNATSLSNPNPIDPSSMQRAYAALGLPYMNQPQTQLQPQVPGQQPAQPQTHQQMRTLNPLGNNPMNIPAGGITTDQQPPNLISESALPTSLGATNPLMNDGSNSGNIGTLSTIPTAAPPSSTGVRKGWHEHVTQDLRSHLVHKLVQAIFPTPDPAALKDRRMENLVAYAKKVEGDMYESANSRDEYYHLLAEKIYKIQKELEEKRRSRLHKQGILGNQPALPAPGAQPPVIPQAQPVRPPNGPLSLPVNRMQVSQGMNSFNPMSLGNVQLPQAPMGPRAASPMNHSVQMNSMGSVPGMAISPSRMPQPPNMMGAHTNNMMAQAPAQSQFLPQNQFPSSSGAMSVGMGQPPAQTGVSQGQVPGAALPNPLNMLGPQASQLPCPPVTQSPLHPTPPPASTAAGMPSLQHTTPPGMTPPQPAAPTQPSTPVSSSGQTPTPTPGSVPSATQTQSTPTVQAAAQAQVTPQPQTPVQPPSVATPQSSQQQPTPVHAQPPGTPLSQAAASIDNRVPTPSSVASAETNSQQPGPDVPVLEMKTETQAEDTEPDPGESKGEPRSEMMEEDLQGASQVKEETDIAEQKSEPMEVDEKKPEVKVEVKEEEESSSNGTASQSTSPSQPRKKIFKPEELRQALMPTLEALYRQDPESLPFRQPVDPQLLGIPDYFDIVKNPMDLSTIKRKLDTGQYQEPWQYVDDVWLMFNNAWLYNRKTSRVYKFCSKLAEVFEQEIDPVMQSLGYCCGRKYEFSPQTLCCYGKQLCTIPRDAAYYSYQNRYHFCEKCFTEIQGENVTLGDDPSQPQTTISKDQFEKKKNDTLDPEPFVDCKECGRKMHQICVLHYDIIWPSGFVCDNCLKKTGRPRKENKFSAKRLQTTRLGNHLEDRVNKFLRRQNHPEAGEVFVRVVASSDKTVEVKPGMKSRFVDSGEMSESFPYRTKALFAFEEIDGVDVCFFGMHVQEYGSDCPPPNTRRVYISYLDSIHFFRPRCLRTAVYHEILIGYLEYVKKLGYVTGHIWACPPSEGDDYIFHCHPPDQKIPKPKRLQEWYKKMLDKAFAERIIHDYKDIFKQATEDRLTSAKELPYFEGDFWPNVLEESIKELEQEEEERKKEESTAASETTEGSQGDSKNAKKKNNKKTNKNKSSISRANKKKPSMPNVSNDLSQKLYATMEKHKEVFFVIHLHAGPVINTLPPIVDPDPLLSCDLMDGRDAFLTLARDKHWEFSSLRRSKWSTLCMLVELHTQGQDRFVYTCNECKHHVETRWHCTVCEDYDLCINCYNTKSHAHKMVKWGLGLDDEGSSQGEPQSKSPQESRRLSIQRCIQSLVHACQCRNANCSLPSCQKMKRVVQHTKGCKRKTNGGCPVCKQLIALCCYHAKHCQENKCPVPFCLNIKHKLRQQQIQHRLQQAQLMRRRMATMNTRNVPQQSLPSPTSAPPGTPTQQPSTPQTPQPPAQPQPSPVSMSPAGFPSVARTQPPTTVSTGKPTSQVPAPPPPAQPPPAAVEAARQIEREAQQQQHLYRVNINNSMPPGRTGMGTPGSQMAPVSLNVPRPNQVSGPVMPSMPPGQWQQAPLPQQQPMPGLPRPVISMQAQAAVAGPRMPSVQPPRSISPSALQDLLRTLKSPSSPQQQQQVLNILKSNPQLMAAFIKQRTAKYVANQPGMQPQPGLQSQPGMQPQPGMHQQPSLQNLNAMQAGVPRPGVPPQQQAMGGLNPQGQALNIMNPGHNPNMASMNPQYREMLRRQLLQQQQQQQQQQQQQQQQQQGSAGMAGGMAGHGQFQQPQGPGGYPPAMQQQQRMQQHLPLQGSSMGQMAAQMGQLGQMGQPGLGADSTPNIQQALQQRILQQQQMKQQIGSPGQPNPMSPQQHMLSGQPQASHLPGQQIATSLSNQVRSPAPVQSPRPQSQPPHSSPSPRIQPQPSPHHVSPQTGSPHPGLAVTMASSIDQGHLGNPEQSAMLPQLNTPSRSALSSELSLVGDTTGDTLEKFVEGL

How did the percent of cells showing co-recruitment to the HSF2-YFP focus turn out when CBP-HA, Q92793 1-2442 (natural protein) was run?
The percent of cells showing co-recruitment to the HSF2-YFP focus was 68.4%.

With EP300-HA, Q09472 1-2414 as the substance, how does the percent of cells showing co-recruitment to the HSF2-YFP focus read?
Its percent of cells showing co-recruitment to the HSF2-YFP focus is 48.6%.

“endogenous CBP of BHK cells (natural protein)” was tested. Which percent of cells showing co-recruitment with HSF2-YFP did it give?
The percent of cells showing co-recruitment with HSF2-YFP was 43.9%.
